# According to doi:10.1101/467431 (bioRxiv, 2018):
# Read-outs that look alike come from different tables or passages of the source.
# T1: Sca2 C-terminal fragment, construct Sca_(868-1515) (Rickettsia conorii, UniProt Q92JF7 868-1515)
# T1 sequence: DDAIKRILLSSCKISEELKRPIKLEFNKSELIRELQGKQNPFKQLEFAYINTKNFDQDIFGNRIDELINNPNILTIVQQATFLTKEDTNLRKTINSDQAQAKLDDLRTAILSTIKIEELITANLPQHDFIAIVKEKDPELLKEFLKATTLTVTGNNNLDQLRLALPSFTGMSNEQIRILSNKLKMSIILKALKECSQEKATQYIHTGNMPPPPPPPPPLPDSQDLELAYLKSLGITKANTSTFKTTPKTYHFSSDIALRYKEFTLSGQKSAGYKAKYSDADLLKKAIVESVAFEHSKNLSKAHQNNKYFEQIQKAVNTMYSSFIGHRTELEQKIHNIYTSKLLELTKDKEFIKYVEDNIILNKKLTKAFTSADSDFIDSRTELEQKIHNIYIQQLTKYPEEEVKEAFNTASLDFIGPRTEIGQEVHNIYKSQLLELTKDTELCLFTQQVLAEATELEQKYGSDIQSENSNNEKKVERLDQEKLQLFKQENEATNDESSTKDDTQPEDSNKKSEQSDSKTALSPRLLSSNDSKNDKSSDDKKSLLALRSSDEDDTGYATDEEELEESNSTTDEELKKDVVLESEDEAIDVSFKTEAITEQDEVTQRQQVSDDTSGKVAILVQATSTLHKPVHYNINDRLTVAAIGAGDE
# B1: Sca2 construct Sca_(869-1060) (domain or fragment)
# chain: DAIKRILLSSCKISEELKRPIKLEFNKSELIRELQGKQNPFKQLEFAYINTKNFDQDIFGNRIDELINNPNILTIVQQATFLTKEDTNLRKTINSDQAQAKLDDLRTAILSTIKIEELITANLPQHDFIAIVKEKDPELLKEFLKATTLTVTGNNNLDQLRLALPSFTGMSNEQIRILSNKLKMSIILKALK
# B2: Sca2 N-terminal fragment, construct Sca_(34-670) (domain or fragment)
# chain: ASFKDLVSKTPAWEKHNSTQQQNIWKDLTPNEKIKKWQEAALVPSFTQAQNDLGIKYKETDLSSFLDNTRHKARQARAEILLYIERVKQQDFDTKKQAYINQGVVPTDIEAATNLGISYDPSKIDNNVEHDQKVRRAEKDKKAVIELYVSSINRGIKYKHYVDNDIIPEIQEVRTALNMNKDDAQSFVASIRTEIMENAKGQYIADSHIPTEKELKKKFGISRDDNRDGYIKSIRLKVMDKEKPQYIADSHIPTEKELEQKFGADKGEATNYIASIATQMMLDKKSYYIDNNIIPNADELMNEFKIGPVKATSYINQIRAGIEANQFLNNNDTTKPSTGRSQKKSGSKNDHWYMSNQSINNTGTSARIVTGREKKQRYFFDPISTFKTYFNTKASKGNLTQSQHNINRIIQQEENIEEFKNLIKTDPIAALTLQVDSSYKQEAVTTILSDFNDDTIQRVLFSNDKGKLDFNTNIDVKNRPILQELLENSSSEEKTKFAERIQDYATRNISNSQFEEKARLDLIKLAASKDKSSVENFLTLQLELKNRMQPYVVNSVYILTPEIVKEINIELKNKGLIRDSLTKDYMIKLAKEVNNHTLNSVIKVILSDSKILSNETNKILGLAVSNNANNLEQTQSG
# What was measured:
# Test in all cases: ITC
# [1] = molecular target: T2, monomeric actin (LatB-actin) (UniProt P68135 1-377)
# [2] = molecular target: T2, monomeric actin (LatB-actin); remark: listed apart in the source
# [3] = molecular target: T1, Sca2 C-terminal fragment, construct …
Binder,Kd [1],stoichiometry N [1],Kd [2],stoichiometry N [2],Kd [3]
B1,10.8 µM,1 LatB-actin monomer per Sca_(869-1060),,,
AAANNNNNNNNNNLGARSVLLEAIRKGIQLRKV (domain or fragment) [MBP fusion of the WH2 domain of WAVE1 (WAVE1 WH2a)],,,0.38 µM,1.07,
B2,,,,2 actin subunits per Sca_(34-670),7 µM
